# From article PMC6987189, “Native aggregation is a common feature among triosephosphate isomerases of different species” (Scientific Reports, 2020)
# Where “and” joins values, the source holds several entries; their conditions need not be identical. Equal entries are not always repeated.
# Columns and labels:
# [1] = biological target: the molecule itself; test: native gel or EMSA; clear native electrophoresis (CN-PAGE), inverse polarity (anode-cathode), 4-10% gradient gels, HEPES/imidazole pH 7.0, 150 V, 4 °C, 5 h, ten micrograms of purified enzyme; no mass markers; dimers to higher aggregates
# [2] = biological target: the molecule itself; test: native gel or EMSA; clear native electrophoresis (CN-PAGE), normal polarity (cathode-anode), 4-10% gradient gels, HEPES/imidazole pH 7.0 (40.0/15.3, 88.9/34.0 or 133.2/50 mM in the gel), 150 V, 4 °C, 5 h, ten micrograms of purified enzyme; masses from ferritin and albumin markers, means of the gel conditions; also after 10 mM DTT; dimers to higher aggregates
protein,measurement,setting,value
"Trypanosoma cruzi triosephosphate isomerase (enzyme, UniProt P52270 1-251, looked up, triosephosphate isomerase (TIM), Trypanosoma cruzi; gene cloned into pET-3a; the aggregates are counted in dimers; also called TcTIM; Tc; source: E. coli Bl21 (DE3)-p-Lys S, purified (SP Sepharose fast flow, Butyl toyopearl, ammonium sulphate precipitation)) MASKPQPIAAANWKCNGSESLLVPLIETLNAATFDHDVQCVVAPTFLHIPMTKARLTNPKFQIAAQNAITRSGAFTGEVSLQILKDYGISWVVLGHSERRLYYGETNEIVAEKVAQACAAGFHVIVCVGETNEEREAGRTAAVVLTQLAAVAQKLSKEAWSRVVIAYEPVWAIGTGKVATPQQAQEVHELLRRWVRSKLGTDIAAQLRILYGGSVTAKNARTLYQMRDINGFLVGGASLKPEFVEIIEATK",binding result,[1],binds
"Thermus thermophilus triosephosphate isomerase (enzyme, UniProt Q5SJR1 1-250, looked up, gene cloned into pET-3aHIS; also called TtTIM; Tt; source: E. coli Bl21 (DE3)-p-Lys S, purified (ammonium sulphate, Butyl-650M, Source 15Q)) MRRVLVAGNWKMHKTPSEARVWFAELKRLLPPLQSEAAVLPAFPILPVAKEVLAETQVGYGAQDVSAHKEGAYTGEVSARMLSDLGCRYAIVGHSERRRYHGETDALVAEKAKRLLEEGITPILCVGEPLEVREKGEAVPYTLRQLRGSLEGVEPPGPEALVIAYEPVWAIGTGKNATPEDAEAMHQAIRKALSERYGEAFASRVRILYGGSVNPKNFADLLSMPNVDGGLVGGASLELESFLALLRIAG",stoichiometry N,[2],9 dimers in the aggregate
"Taenia solium triosephosphate isomerase (enzyme, UniProt Q9GTX8 1-250, looked up, triosephosphate isomerase (TIM), Taenia solium; gene cloned into pRSET; also called TsTIM; Ts; source: E. coli Bl21 (DE3)-p-Lys S, purified (ammonium sulphate, Butyl-650M, Source 15Q)) MTRKLFVGGNWKMNGSYSHINTFFDTLQKADTDPNADIVIGVPACYLKYAQDKAPKGIKIAAENCYKVGSGAFTGEISTEMIKDCGCEWVILGHSERRHIFGESNELIGEKVKHALDSGLNVIPCIGELLSEREAGKTNDVCFAQMDAIAKNVPSKEAWDKVVIAYEPVWAIGTGKTATPAQAQEVHKVVRDWIRKHVDAGIADKVRILYGGSVTASNAKDLGTQPDVDGFLVGGASLKPDFITIINARR",stoichiometry N,[2],11 dimers in the aggregate and 8.5 dimers in the aggregate
"Leishmania mexicana triosephosphate isomerase (enzyme, UniProt P48499 1-251, looked up, triosephosphate isomerase (TIM), Leishmania mexicana; gene cloned into pET-3aHIS; also called LmTIM; Lm; source: E. coli Bl21 (DE3)-p-Lys S, purified (ammonium sulphate, Butyl-650M, Source 15Q)) MSAKPQPIAAANWKCNGTTASIEKLVQVFNEHTISHDVQCVVAPTFVHIPLVQAKLRNPKYVISAENAIAKSGAFTGEVSMPILKDIGVHWVILGHSERRTYYGETDEIVAQKVSEACKQGFMVIACIGETLQQREANQTAKVVLSQTSAIAAKLTKDAWNQVVLAYEPVWAIGTGKVATPEQAQEVHLLLRKWVSENIGTDVAAKLRILYGGSVNAANAATLYAKPDINGFLVGGASLKPEFRDIIDATR",binding result,[1],binds
